Measurements reported in patent publication US20220213193A1 (BROWN UNIVERSITY, published 2022).

Target: T1, recombinant human (rh) CHI3L1 (human, UniProt P36222 22-383)
T1 construct: also called rhCHI311; human CHI3L1
Experiment: competitive ELISA on recombinant antigen

T1 sequence (P36222 22-383 limits assumed): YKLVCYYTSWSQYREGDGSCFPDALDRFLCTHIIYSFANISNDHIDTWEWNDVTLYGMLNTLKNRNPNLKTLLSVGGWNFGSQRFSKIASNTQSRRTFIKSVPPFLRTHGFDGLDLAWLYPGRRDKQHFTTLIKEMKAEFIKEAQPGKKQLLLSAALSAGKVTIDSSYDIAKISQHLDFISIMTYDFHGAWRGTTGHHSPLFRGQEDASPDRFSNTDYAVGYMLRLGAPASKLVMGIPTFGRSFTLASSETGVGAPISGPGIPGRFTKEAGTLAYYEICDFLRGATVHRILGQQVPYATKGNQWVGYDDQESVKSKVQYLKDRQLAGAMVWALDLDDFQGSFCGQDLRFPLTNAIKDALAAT

Kd: ~1 nM
B1: anti-human CHI3L1 antibody FRG (antibody, V domains shown)
VH: QIQLVQSGPELKKPGETVKISCKASGYTFTNYGMNWVKQAPGKGLKWMGWINTYTGEPTYADDFKGRFAFSLETSASTAYLQINNLRNEDMSTYFCARLGYGKFYVMDYWGQGTSVTVSS
VL: DVVMTQTPLSLPVSLGDQASISCRSSQSLVHSNGNTYLHWYLQKPGQSPKLLIYKVSNRFSGVPDRFSGSGSGTDFTLKISRVEAEDLGVYFCSQSTHVTWTFGGGTKLEIK
notes: also called anti-CHI3L1; α-CHI3L1
